In the RNAGym collection of RNA variant scans (doi:10.7554/elife.80360):

B1: Twister Ribozyme (parent)
chain: AACACUGCCAAUGCCGGUCCCAAGCCCGGAUAAAAGUGGAGGGGGCGG

Variants of: B1
Experiment: self-cleavage, relative activity (ratio to wild type); higher = more cleavage; co-transcriptional

Going from C19A A40G to C19U A34C, the self-cleavage falls from 0.124 to 0.083.

First: C19U A34G
Second: C19G A22C
The self-cleavage of the first is higher: 0.601 for the first, 0.219 for the second.

First: C19G A22U
Second: C20A G45C
The self-cleavage of the first is lower: 0.0871 for the first, 0.161 for the second.

First: C19A C20A
Second: C19A C20G
The self-cleavage of the first is lower: 0.0769 for the first, 0.093 for the second.

First: C19A C20U
Second: C20G A22U
The self-cleavage of the first is lower: 0.0818 for the first, 0.122 for the second.

Going from C20G A22C to U18G G44A, the self-cleavage falls from 0.147 to 0.0959.

Going from C20A G41A to U18A G29A, the self-cleavage rises from 0.0878 to 0.41.

Compared with C19U G43C, U18A G36C is lower in self-cleavage: 0.286 for the first, 0.0768 for the second.

Compared with U18A G36U, U18A G36A is lower in self-cleavage: 0.172 for the first, 0.111 for the second.

Going from U18G C46G to U18G C46U, the self-cleavage rises from 0.0845 to 0.129.

Compared with C20G G39U, C20G G39A is higher in self-cleavage: 0.0983 for the first, 0.106 for the second.

First: C20G G39C
Second: C19A C21A
The self-cleavage of the first is higher: 0.0945 for the first, 0.0702 for the second.

First: C19A C21G
Second: C20G G38U
The self-cleavage of the first is higher: 0.0812 for the first, 0.0717 for the second.

First: C20G G38C
Second: C20G G38A
The self-cleavage of the first is higher: 0.108 for the first, 0.0626 for the second.

Compared with U18C G44U, U18C G44C is lower in self-cleavage: 0.498 for the first, 0.49 for the second.

First: U18G A30C
Second: U18G A30G
The self-cleavage of the first is higher: 0.14 for the first, 0.0594 for the second.

Compared with C19A G39U, U18C C25U is higher in self-cleavage: 0.124 for the first, 0.16 for the second.

Compared with U18C C25G, C19G G48A is higher in self-cleavage: 0.104 for the first, 0.167 for the second.

Going from C19G G44A to U18G A40U, the self-cleavage falls from 0.351 to 0.0452.

Going from U18G A40G to C19G G28A, the self-cleavage rises from 0.0494 to 0.211.

Compared with C19G G28U, U18G A23C is lower in self-cleavage: 0.212 for the first, 0.0482 for the second.

Compared with U18G A23G, C19A G28A is higher in self-cleavage: 0.0817 for the first, 0.184 for the second.

First: C19A G28C
Second: C20A G36C
The self-cleavage of the first is higher: 0.135 for the first, 0.0494 for the second.

Going from C20A G36U to U18G G39U, the self-cleavage falls from 0.0906 to 0.0734.

Compared with U18G G39A, C20G A30G is higher in self-cleavage: 0.107 for the first, 0.233 for the second.

First: U18C A40U
Second: U18C A40C
The self-cleavage of the first is higher: 0.113 for the first, 0.0612 for the second.

First: U18C A40G
Second: C20G G28U
The self-cleavage of the first is lower: 0.121 for the first, 0.233 for the second.

First: C20G A40C
Second: C20G A40U
The self-cleavage of the first is higher: 0.109 for the first, 0.0992 for the second.

Compared with U18C A22U, U18C A22C is higher in self-cleavage: 0.243 for the first, 0.397 for the second.

Compared with C19G G43A, C19G G43C is higher in self-cleavage: 0.242 for the first, 0.711 for the second.

First: U18A C25A
Second: U18A C25G
The self-cleavage of the first is higher: 0.0777 for the first, 0.0662 for the second.

Compared with U18A G24U, U18A G24C is higher in self-cleavage: 0.094 for the first, 0.0951 for the second.

Compared with U18A G24A, U18G U37G is lower in self-cleavage: 0.0868 for the first, 0.0758 for the second.

Compared with U18G U37A, C19A A34C is higher in self-cleavage: 0.063 for the first, 0.0755 for the second.

Compared with C19A A34G, U18C A34C is lower in self-cleavage: 0.101 for the first, 0.0598 for the second.

First: U18C A34G
Second: U18C A34U
The self-cleavage of the first is lower: 0.142 for the first, 0.149 for the second.

Going from C20A G29A to C20A, the self-cleavage rises from 0.138 to 0.16.

First: C20G
Second: C19G A30G
The self-cleavage of the first is lower: 0.169 for the first, 0.468 for the second.

Compared with C19G A30U, C19U A33U is higher in self-cleavage: 0.456 for the first, 0.86 for the second.

Going from C19U A33C to U18C C27U, the self-cleavage falls from 0.795 to 0.182.

Going from U18C C27A to C19A U37A, the self-cleavage falls from 0.0979 to 0.0721.

Variant U18A C19G has a self-cleavage of 0.0926.
